Consider 1 protein from doi:10.1101/2023.12.05.570191 (bioRxiv, 2023).

The data set deals with the molecule itself. Briefly: FRET or BRET.

B1: Cy5-labelled metallated Zur (Zur^Cy5, Cy5 at C113) (natural protein, E. coli)
chain: MEKTTTQELLAQAEKISAQRNVRLTPQRLEVLRLMSLQDGAISAYDLLDLLREAEPQAKPPTVYRALDFLLEQGFVHKVESTNSYVLCHLFDQPTHTSAMFICDRCGAVKEECAEGVEDIMHTLAAKMGFALRHNVIEAHGLCAACVEVEASRHPEQSQHDHSVQVKKKPR
modifications: Cy5 (maleimide chemistry) at C113 of one monomer of the dimer
Regarding B1, the binding result is “binds”.
